Reference: US9458220B2 (priority 2010, dated 2016)
Read-outs that look alike come from different tables or passages of the source. Primed or numbered codes have the meaning given here. Where no end group is shown, it is not given here. [ ]: non-standard residue; d: D form. PEG8′ = non-peptide PEG linker of 8 ethylene glycol units

Tests used:
human insulin receptor = molecular target: T1, human insulin receptor (Homo sapiens, UniProt P06213); test: Insulin receptor competition binding assay (scintillation proximity); conditions: Table 8
T1 construct: expressed in transfected cells; plasma membrane fragments

IR-B = IR-B (Homo sapiens, UniProt P06213); test: In vitro activity at IR-B relative to native insulin; format: cell-based; conditions: for % Insulin Activity IR-B: Table 17
IR-A = IR-A (Homo sapiens, UniProt P06213); test: In vitro activity at IR-A relative to native insulin; format: cell-based
IGF-1 R = IGF-1 R (Homo sapiens, UniProt P08069); test: In vitro activity at IGF-1 R relative to native insulin; format: cell-based; conditions: for % Insulin Activity IGF-1 R: Table 17
mice = test: Comparative insulin tolerance test in mice; format: in vivo; conditions: result in words
Procedure: The activity of the compounds in vivo was also tested by administering the compounds to mice. Food was removed four hours prior to administering peptide to normal mice and withheld for the duration of the study. Glucose was measured just prior to administration of test compounds and at 1, 2, 3, 6 and 8, 12, 16, 20 and 24 hours after administration. […] FIGS. 29B and 29C provide data on blood glucose concentrations over 8 hours after administration of the listed analogs.
The compounds were tested at two different concentrations (27 nmol/kg and 90nmol/kg).
This single chain analog comprises a 20 kDa PEG linked to the side chain of the single lysine residue in the linking moiety (PEG8-K-PEG4) that joins the A chain and the B chain. […] FIGS. 33C and 33D show the blood glucose AUC24 hrs in mice administered Detemir and MIU-56, respectively.

With `CC[C@H](C)[C@H](NC(=O)CNC(=O)[C@@H]1CCCN1C(=O)[C@H](C)N)C(=O)N[C@H](C(=O)N[C@@H](CC(=O)O)C(=O)N[C@@H](CCC(=O)O)C(=O)N[C@H]1CSSC[C@@H]2NC(=O)[C@H](CO)NC(=O)[C@H](CCCNC(=N)N)NC(=O)[C@H](Cc3ccccc3)NC(=O)[C@H](CSSC[C@H](NC(=O)[C@H](CC(C)C)NC(=O)[C@@H](NC(=O)[C@H](CCC(=O)O)NC(=O)[C@@H]3CCCN3C(=O)CN)[C@@H](C)O)C(=O)NCC(=O)N[C@@H](C)C(=O)N[C@@H](CCC(=O)O)C(=O)N[C@@H](CC(C)C)C(=O)N[C@@H](C(C)C)C(=O)N[C@@H](CC(=O)O)C(=O)N[C@@H](C)C(=O)N[C@@H](CC(C)C)C(=O)N[C@@H](Cc3ccc(O)cc3)C(=O)N[C@@H](CC(C)C)C(=O)N[C@@H](C(C)C)C(=O)N[C@H](C(=O)NCC(=O)N[C@@H](CC(=O)O)C(=O)N[C@@H](CCCNC(=N)N)C(=O)NCC(=O)N[C@@H](Cc3ccccc3)C(=O)N[C@@H](Cc3ccc(O)cc3)C(=O)N[C@@H](Cc3ccccc3)C(=O)N[C@@H](CC(N)=O)C(=O)N[C@@H](CCCCN)C(=O)N3CCC[C@H]3C(=O)N[C@H](C(N)=O)[C@@H](C)O)CSSC[C@@H](C(=O)N[C@@H](C)C(N)=O)NC(=O)[C@H](Cc3ccc(O)cc3)NC(=O)[C@H](CCSC)NC(=O)[C@H](CCC(=O)O)NC(=O)[C@H](CC(C)C)NC(=O)[C@H](CCCNC(=N)N)NC(=O)[C@H](CCCNC(=N)N)NC(=O)[C@H](CC(C)C)NC(=O)[C@H](CC(=O)O)NC2=O)NC1=O)C(C)C` [IGF1(Y^B16L^B17)(AlaPro)^A-1, 0] the “% of Insulin Activity” value (human insulin receptor) was 37.12%.

With “B1, A14-10K B^1(H5, 10Y16L17R29)29: A^1(H8K14N18, 21) (chain 1 GPEHLCGAHLVDALYLVCGDRGFYFNKR; chain 2 GIVDECCHRSCDLKRLENYCN) [di-10K-TC]” the IR-B (IR-B; Table 19) was 2.1% and the IR-A (IR-A; Table 19) was 6.4%.

For “B1, A14-10K B^1(H5, 10Y16L17R29)30-C^1des9-12-A^1(H8, K14, N18, 21) (GPEHLCGAHLVDALYLVCGDRGFYFNKRTGYGSSSRRGIVDECCHRSCDLKRLENYCN) [MIU-79]”, the IR-B (IR-B; Table 19) was 0.2% and the IR-A (IR-A; Table 19) was 1.7%.

In the case of “B1-20K B^1(H5, 10Y16L17K29)29-A^1(H8N18, 21) [MIU-77]”, the IR-A (IR-A) is reported as 0.1% and the “activity at the insulin type-A receptor on addition of a 20 kDa PEG” value (IR-A) is reported as ~100 fold.

For “B1-20K B^1(H5, 10Y16L17K29)29: A^1(H8N18, 21) [MIU-78]”, the IR-B (IR-B) was 3.2% and the IR-A (IR-A) was 8.2%.

For “B^1(A5H10Y16L17)25-C^1-A^1(H8N18N21) [Ala, B5]”, the IR-B (IR-B; Table 18) was 5.7% and the “IGF-1 R” value (IGF-1 R; Table 18) was 2.5%.

In the case of “B^1(C16-K0,H5,H10,Y16,L17)25a: A^1(N18,N21) [MIU-36]”, the “ability to reduce and sustain low blood glucose” value (mice) is reported as “more basal and sustained lowered glucose levels relative to native insulin”.

With “B^1(H5, 10Y16L17)25-C^1-A^1(T8N18, 21) (GPEHLCGAHLVDALYLVCGDRGFYGYGSSSRRAPQTGIVDECCTRSCDLRRLENYCN) [Thr, A8]” the IR-B (IR-B; Table 18) was 8.4%, the IR-A (IR-A; Table 18) was 20.4% and the “IGF-1 R” value (IGF-1 R; Table 18) was 3.7%.

With “B^1(H5, 10Y16L17A24)25-C^1-A^1(H8N18, N21) [Ala, B24]” the IR-B (IR-B) was 0.4%, the IR-A (IR-A) was 0.1% and the “IGF-1 R” value (IGF-1 R) was 0.3%.

In the case of “B^1(H5, 10Y16L17K29)29-A^1(H8, N18, 21) [DP3(SC)]”, the IR-A (IR-A; Table 19) is reported as 0.03%.

“B^1(H5, 10Y16L17K29)29: A^1(H8, N18, 21) [DP3(TC)]” was tested, and the IR-B (IR-B; Table 19) was 33.1% and the IR-A (IR-A; Table 19) was 159.8%.

Work on “B^1(H5, 10Y16L17R29)30-C^1des9-12-A^1(H8, K14, N18, 21) (GPEHLCGAHLVDALYLVCGDRGFYFNKRTGYGSSSRRGIVDECCHRSCDLKRLENYCN) [DP8Mut3KA14]” yielded an IR-B (IR-B; Table 19) of 12.6% and an IR-A (IR-A; Table 19) of 132.2%.

“B^1(H5, 10Y16L17R29)30-C^1des9-12-A^1(H8, N18, 21) (GPEHLCGAHLVDALYLVCGDRGFYFNKRTGYGSSSRRGIVDECCHRSCDLRRLENYCN) [MIU-43]” gave an IR-B (IR-B; Table 19) of 16.7%, an IR-A (IR-A; Table 19) of 97.5% and an IGF-1 R (IGF-1 R; Table 19) of 14.2%.

In the case of “B^1(H5,H10,Y16,L17)25-C^1-A^1(H8,N18,N21) (GPEHLCGAHLVDALYLVCGDRGFYGYGSSSRRAPQTGIVDECCHRSCDLRRLENYCN) [MIU-35]”, the IR-B (IR-B; Table 18) is reported as 17.4%, the IR-A (IR-A; Table 18) is reported as 61.4% and the “% Insulin Activity IGF-1 R” value (IGF-1 R) is reported as 3.2%. For the same molecule, the “IGF-1 R” value (IGF-1 R; Table 18) was 3.2%.

In the case of “B^1(H5,H10,Y16,L17)25a: A^1(H8,rEC16-K14,N18,N21) [MIU-41]”, the “ability to reduce and sustain low blood glucose” value (mice) is reported as “more basal and sustained lowered glucose levels relative to native insulin”.

In the case of “B^1(H5,H10,Y16,L17,C16rE-K22)25a: A^1(N18,N21) [MIU-37]”, the “ability to reduce and sustain low blood glucose” value (mice) is reported as “more basal and sustained lowered glucose levels relative to native insulin”.

With “B^1(H5,Y16,L17)25-C^1(K8)-A^1(K14, N18,21) (GPEHLCGAELVDALYLVCGDRGFYGYGSSSRKAPQTGIVDECCFRSCDLKRLENYCN) [MIU-69, two 10K PEG chains, at the N-terminus and at amino acid A14]” the “% Insulin Activity IGF-1 R” value (IGF-1 R) was <0.1%.

With “B^1(H5,Y16,L17)25-C^1(K8)-A^1(N18,21) (GPEHLCGAELVDALYLVCGDRGFYGYGSSSRKAPQTGIVDECCFRSCDLRRLENYCN) [MIU-67, two 10K PEG chains, at the N-terminus and at position C8]” the “% Insulin Activity IR-B” value (IR-B) was 0.1%, the “ability to reduce and sustain low blood glucose” value (mice) was “roughly equivalent to MIU-59 administered at 40 nmol/kg” and the “% Insulin Activity IGF-1 R” value (IGF-1 R) was <0.1%.

With “B^1(H5,Y16,L17, K22)25-C^1(K8)-A^1(N18,21) (GPEHLCGAELVDALYLVCGDKGFYGYGSSSRKAPQTGIVDECCFRSCDLRRLENYCN) [MIU-68, two 10K PEG chains, at the N-terminus and at amino acid B22]” the “% Insulin Activity IR-B” value (IR-B) was 0.1% and the “% Insulin Activity IGF-1 R” value (IGF-1 R) was <0.1%.

In the case of “C8-PEG20K B^1(H5, Y16, L17)25-PEG8-K-PEG4-A^1(N18, N21) (GPEHLCGAELVDALYLVCGDRGFY[PEG8′]KGIVDECCFRSCDLRRLENYCN; not fully specified (some residues, bridges); ends and bridges not checked) [MIU-56]”, the “ability to reduce and sustain low blood glucose” value (mice) is reported as “sustained duration of action for 24 hours”.

With “GE5W-B^1(A5H10Y16L17)25-C^1-A^1(H8N18N21) [GE5W-Ala, B5]” the IR-B (IR-B; Table 18) was 2.3%, the IR-A (IR-A; Table 18) was 8.6% and the “IGF-1 R” value (IGF-1 R; Table 18) was 0.3%.

B1: GE5W-B^1(H5, 10Y16L17)25-C^1-A^1(A1H8N18, 21) (peptide)
chain: GEEEEEWGPEHLCGAHLVDALYLVCGDRGFYGYGSSSRRAPQTAIVDECCHRSCDLRRLENYCN
With B1 the IR-B (IR-B; Table 18) was 0.7%, the IR-A (IR-A; Table 18) was 2.1% and the “IGF-1 R” value (IGF-1 R; Table 18) was 0.5%.
